Experimental data as given in US7459544 (GENETICS INSTITUTE, dated 2008).

Molecular target: Human CTLA4 fusion protein (CTLA4Ig) (human, UniProt P16410 36-161)
Test: solid phase competition on immobilized CTLA4-Ig; reference B7-1Ig

Human CTLA4 fusion protein (CTLA4Ig), sequence (P16410 36-161): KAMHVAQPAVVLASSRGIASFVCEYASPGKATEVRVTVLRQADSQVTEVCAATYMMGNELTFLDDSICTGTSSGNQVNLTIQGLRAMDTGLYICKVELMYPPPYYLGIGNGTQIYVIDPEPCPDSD

B1: human B7-2 immunoglobulin fusion protein (hB7-2Ig, full extracellular domain) (Fc fusion)
chain: APLKIQAYFNETADLPCQFANSQNQSLSELVVFWQDQENLVLNEVYLGKEKFDSVHSKYMGRTSFDSDSWTLRLHNLQIKDKGLYQCIIHHKKPTGMIRIHQMNSELSVLANFSQPEIVPISNITENVYINLTCSSIHGYPEPKKMSVLLRTKNSTIEYDGIMQKSQDNVTELYDVSISLSVSFPDVTSNMTIFCILETDKTRLLSSPFSIELEDPQPPPD
modifications: Biotinylated or 125I-labelled in some assays.
notes: Coated on plates, biotinylated or 125I-labelled depending on the assay; also called human B7.2-Ig; full-length B7-2; not shown: Junction residue Q and the hinge-CH2-CH3 of human IgG1 or IgG4 (hinge Cys to Ser, optionally CH2 mutated)
fold lower avidity than B7-1: ~2 fold
